Laboratory results taken from PMC3488230.

Tests used:
Assay in all cases: EMSA
Mfd D7AAA = Mfd D7AAA (Escherichia coli, UniProt P30958 1-1148, E1045A;D1048A;R1049A)
Mfd WA550 RA953 = Mfd WA550 RA953 (Escherichia coli, UniProt P30958 1-1148, W550A;R953A)
Mfd RA953 = Mfd RA953 (Escherichia coli, UniProt P30958 1-1148, R953A)
Mfd WA550 = Mfd WA550 (Escherichia coli, UniProt P30958 1-1148, W550A)

B1: 50 bp oligonucleotide duplex (dsDNA)
DNA 1: CTCATACGACGCTGTCGATCCAGTCACTGTCATGCGCTATCCGATCCTAG
DNA 2: CTAGGATCGGATAGCGCATGACAGTGACTGGATCGACAGCGTCGTATGAG
binding result (Mfd D7AAA): binds
binding result (Mfd WA550 RA953): no binding
binding result (Mfd RA953): binds
binding result (Mfd WA550): binds
